Results as given in FireProtDB (doi:10.1016/0168-1656(93)90129-b).

Conditions: Escherichia coli (strain K12), CD, reversible: yes, whole UniProt chain shown; for Tm: Thermal; for denaturant midpoint (higher = more stable) / unfolding free energy: 25 °C, GdnHCl

B1: Ribonuclease HI wild type, P0A7Y4 (protein)
chain: MLKQVEIFTDGSCLGNPGPGGYGAILRYRGREKTFSAGYTRTTNNRMELMAAIVALEALKEHCEVILSTDSQYVRQGITQWIHNWKKRGWKTADKKPVKNVDLWQRLDAALGQHQIKWEWVKGHAGHPENERCDELARAAAMNPTLEDTGYQVEV
Tm (pH 3, glycine-HCl 10 mM): 49.4 °C
denaturant midpoint (higher = more stable) (pH 5.5, Sodium acetate 20 mM): 1.79 M
unfolding free energy (pH 5.5, Sodium acetate 20 mM): 9.21 kcal/mol
Tm (pH 5.5, Sodium acetate 20 mM): 52.7 °C
Tm (pH 7.8, Sodium phosphate 20 mM): 50.2 °C
denaturant midpoint (higher = more stable) (pH 8.2, Tris-HCl 20 mM): 1.65 M
unfolding free energy (pH 8.2, Tris-HCl 20 mM): 8.49 kcal/mol
